From the supplement of paper PMC10065799, “High-throughput profiling of sequence recognition by tyrosine kinases and SH2 domains using bacterial peptide display” (eLife, 2023)

Legend:
Grb2 SH2 = Grb2 SH2 (UniProt P62993); assay: SH2 binding enrichment of the phosphorylated peptide, bacterial display (enrichment ratio); higher = better substrate or ligand; peptides without Tyr show the background
c-Src SH2 = assay: as above
SHP2-C SH2 = assay: as above
EPHB1 = EPHB1 (UniProt P54762); assay: phosphorylation enrichment, bacterial display (enrichment ratio); higher = better substrate or ligand; peptides without Tyr show the background
Chain of EPHB1 (P54762 whole entry, looked up): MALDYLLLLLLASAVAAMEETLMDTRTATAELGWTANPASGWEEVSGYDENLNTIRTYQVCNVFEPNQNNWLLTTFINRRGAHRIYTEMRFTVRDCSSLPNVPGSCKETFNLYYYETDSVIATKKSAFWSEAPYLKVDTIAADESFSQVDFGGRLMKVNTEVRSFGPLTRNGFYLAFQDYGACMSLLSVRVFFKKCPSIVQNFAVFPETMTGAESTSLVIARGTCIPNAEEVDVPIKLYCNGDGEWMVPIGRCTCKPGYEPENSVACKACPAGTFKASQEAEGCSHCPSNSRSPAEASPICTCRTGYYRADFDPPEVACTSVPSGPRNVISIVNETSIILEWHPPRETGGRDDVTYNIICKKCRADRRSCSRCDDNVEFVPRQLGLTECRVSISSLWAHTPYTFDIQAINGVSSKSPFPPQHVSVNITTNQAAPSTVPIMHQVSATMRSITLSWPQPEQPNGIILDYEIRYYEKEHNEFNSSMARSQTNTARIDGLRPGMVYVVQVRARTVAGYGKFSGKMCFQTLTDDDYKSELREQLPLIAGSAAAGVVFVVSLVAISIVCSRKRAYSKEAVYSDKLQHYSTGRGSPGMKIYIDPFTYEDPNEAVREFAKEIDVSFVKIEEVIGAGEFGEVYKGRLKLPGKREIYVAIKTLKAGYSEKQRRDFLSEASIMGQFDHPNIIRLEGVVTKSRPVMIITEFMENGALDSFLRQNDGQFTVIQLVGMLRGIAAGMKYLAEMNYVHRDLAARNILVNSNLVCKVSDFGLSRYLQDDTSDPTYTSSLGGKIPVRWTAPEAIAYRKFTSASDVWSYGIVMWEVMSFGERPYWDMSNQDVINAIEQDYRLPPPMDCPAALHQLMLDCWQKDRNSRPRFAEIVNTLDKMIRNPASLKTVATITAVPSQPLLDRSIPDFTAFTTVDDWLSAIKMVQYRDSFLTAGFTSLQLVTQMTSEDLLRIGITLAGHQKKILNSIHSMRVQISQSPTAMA

Hck = Hck (UniProt P08631); assay: as above
Chain of Hck (P08631 whole entry, looked up): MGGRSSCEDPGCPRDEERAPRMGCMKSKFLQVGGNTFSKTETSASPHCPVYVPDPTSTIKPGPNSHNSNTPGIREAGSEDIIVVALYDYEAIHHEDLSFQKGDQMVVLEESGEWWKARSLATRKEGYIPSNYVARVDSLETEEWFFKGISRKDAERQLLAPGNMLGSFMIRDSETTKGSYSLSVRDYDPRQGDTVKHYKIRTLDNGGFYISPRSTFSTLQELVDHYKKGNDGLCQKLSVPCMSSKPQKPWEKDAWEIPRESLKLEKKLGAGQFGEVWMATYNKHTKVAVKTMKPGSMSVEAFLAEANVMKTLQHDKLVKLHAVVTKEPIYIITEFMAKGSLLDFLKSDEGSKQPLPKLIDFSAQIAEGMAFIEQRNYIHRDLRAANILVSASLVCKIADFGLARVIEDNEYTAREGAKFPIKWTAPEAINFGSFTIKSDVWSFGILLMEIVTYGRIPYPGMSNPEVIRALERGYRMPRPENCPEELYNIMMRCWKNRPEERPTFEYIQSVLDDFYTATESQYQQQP

Jak2 = Jak2 (UniProt O60674); assay: as above
FGFR3 = FGFR3 (UniProt P22607); assay: as above
Chain of FGFR3 (P22607 whole entry, looked up): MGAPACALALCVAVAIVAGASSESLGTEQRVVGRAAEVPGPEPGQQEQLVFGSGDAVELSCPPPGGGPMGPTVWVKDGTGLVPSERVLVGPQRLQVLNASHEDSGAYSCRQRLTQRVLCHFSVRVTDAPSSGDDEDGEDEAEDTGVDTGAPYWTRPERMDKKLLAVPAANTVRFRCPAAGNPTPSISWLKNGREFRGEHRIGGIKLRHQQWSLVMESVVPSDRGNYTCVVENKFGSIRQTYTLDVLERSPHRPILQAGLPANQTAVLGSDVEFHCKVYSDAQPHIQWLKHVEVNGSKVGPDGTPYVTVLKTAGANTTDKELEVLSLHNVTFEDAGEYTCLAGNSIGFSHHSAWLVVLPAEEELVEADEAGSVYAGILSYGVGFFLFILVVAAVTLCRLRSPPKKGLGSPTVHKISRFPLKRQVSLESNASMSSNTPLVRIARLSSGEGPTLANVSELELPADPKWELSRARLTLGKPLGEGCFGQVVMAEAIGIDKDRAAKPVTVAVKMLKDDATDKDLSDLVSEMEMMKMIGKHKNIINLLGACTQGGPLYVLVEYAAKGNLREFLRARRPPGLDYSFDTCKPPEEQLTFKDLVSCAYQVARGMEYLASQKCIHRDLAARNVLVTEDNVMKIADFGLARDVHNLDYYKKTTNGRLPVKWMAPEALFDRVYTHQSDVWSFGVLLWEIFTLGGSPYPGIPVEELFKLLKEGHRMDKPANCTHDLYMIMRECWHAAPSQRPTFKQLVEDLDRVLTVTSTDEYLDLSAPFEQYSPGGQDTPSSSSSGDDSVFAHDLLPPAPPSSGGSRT

Fer (mouse) = assay: as above
EPHB2 = EPHB2 (UniProt P29323); assay: as above
Chain of EPHB2 (P29323 whole entry, looked up): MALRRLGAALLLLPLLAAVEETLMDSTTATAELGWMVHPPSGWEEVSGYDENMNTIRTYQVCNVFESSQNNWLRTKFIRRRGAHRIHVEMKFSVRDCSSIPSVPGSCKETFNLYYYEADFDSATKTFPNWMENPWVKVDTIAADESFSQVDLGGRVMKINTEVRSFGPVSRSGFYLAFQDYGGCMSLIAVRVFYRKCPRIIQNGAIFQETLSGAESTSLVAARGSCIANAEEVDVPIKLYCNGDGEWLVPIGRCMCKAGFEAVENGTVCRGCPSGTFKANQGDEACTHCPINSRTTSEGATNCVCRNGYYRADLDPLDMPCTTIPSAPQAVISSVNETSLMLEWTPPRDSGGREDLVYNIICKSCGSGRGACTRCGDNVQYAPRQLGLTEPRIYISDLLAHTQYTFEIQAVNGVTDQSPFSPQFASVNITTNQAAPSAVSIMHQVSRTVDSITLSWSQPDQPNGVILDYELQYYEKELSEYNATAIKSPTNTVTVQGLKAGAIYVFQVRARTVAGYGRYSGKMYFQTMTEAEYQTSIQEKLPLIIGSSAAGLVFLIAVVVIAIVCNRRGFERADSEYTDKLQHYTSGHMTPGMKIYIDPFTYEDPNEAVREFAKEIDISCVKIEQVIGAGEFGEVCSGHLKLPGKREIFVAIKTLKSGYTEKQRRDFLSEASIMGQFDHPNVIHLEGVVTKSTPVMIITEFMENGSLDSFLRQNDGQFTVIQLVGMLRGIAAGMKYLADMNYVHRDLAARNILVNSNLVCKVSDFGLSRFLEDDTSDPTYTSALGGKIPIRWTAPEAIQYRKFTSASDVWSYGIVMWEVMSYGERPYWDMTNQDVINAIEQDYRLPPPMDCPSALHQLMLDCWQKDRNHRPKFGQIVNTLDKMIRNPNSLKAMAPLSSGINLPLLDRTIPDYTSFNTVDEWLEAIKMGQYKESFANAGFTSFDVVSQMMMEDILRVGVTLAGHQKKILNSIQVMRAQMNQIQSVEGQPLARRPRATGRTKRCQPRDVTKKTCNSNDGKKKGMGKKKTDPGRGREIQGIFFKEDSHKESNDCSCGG

Fyn = Fyn (UniProt P06241); assay: as above
Fes = Fes (UniProt P07332); assay: as above
Chain of Fes (P07332 whole entry, looked up): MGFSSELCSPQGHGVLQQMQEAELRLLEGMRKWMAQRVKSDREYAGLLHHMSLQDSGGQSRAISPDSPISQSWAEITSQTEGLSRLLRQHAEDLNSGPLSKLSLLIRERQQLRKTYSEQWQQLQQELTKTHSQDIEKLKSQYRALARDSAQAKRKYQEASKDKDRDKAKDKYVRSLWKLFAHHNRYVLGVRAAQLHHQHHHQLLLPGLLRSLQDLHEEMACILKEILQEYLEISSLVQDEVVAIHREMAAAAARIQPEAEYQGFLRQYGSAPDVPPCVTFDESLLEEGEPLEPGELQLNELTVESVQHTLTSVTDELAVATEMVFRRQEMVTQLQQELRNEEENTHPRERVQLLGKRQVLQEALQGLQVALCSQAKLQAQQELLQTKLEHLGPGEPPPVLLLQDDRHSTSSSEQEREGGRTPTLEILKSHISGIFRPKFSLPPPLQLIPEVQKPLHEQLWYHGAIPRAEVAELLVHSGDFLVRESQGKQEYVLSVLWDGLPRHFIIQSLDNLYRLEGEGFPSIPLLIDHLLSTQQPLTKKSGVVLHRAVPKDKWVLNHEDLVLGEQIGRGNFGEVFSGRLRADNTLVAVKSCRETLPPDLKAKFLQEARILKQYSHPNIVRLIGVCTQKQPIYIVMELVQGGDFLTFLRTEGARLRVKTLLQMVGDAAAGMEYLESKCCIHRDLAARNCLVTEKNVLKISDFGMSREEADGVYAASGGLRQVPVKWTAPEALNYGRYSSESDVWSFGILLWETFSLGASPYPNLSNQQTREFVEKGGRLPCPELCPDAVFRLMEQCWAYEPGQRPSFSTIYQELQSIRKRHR

c-Abl (mouse) = assay: as above
MERTK = MERTK (UniProt Q12866); assay: as above
c-Src = assay: as above
FGFR1 = FGFR1 (UniProt P11362); assay: as above
Chain of FGFR1 (P11362 whole entry, looked up): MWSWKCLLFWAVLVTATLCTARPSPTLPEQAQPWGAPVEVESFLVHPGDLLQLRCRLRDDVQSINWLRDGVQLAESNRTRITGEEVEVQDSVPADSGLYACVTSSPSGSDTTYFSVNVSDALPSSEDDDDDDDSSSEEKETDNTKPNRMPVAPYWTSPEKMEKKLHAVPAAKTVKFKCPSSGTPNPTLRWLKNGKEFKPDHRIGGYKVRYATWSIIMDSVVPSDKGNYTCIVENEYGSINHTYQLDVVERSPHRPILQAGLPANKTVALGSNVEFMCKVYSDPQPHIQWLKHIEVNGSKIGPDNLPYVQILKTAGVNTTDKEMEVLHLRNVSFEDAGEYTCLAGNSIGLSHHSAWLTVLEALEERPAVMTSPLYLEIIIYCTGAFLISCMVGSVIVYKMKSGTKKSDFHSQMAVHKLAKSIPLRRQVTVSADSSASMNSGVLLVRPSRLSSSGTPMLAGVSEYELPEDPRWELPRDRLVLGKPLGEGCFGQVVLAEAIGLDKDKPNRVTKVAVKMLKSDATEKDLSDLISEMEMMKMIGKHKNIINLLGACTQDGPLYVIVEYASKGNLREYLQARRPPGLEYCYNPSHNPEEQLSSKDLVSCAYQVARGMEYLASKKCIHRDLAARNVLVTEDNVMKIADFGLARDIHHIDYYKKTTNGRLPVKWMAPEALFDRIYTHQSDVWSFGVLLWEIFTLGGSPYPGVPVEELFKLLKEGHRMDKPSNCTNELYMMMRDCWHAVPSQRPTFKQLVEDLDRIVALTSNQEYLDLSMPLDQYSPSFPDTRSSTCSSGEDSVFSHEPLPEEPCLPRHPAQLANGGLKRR

AncSZ = assay: as above
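Wherever SH2 binding enrichment of the phosphorylated peptide, bacterial display is given: peptide library displayed on the E. coli surface as eCPX fusions, selected cells deep-sequenced, score is each peptide's frequency after selection divided by its frequency in the input.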
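Wherever phosphorylation enrichment, bacterial display is given: 11-residue human phosphosite peptides and single-mutation variants displayed on the E. coli surface, counted by deep sequencing, each peptide's frequency after selection divided by its frequency in the unselected input library; frequency after pTyr selection over input frequency; kinase dosed for 20-30% of maximal phosphorylation in three min.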

| Sequence | SH2 binding enrichment (Grb2 SH2) | SH2 binding enrichment (c-Src SH2) | SH2 binding enrichment (SHP2-C SH2) | phosphorylation enrichment (EPHB1) | phosphorylation enrichment (Hck) | phosphorylation enrichment (Jak2) | phosphorylation enrichment (FGFR3) | phosphorylation enrichment (Fer (mouse)) | phosphorylation enrichment (EPHB2) | phosphorylation enrichment (Fyn) | phosphorylation enrichment (Fes) | phosphorylation enrichment (c-Abl (mouse)) | phosphorylation enrichment (MERTK) | phosphorylation enrichment (c-Src) | phosphorylation enrichment (FGFR1) | phosphorylation enrichment (AncSZ) |
| --- | --- | --- | --- | --- | --- | --- | --- | --- | --- | --- | --- | --- | --- | --- | --- | --- |
| LEIETYPRLLD [KRT12_Y429_R430P] | 0.826 | 0.498 | 0.65 | 0.802 | 0.41 | 1.85 | 1.06 | 0.646 | 0.953 | 0.599 | 1.87 | 1.1 | 0.461 | 0.772 | 0.787 | 1.3 |
| LESTLYESSVV [TRPV4_Y91] | 0.708 | 0.448 | 0.861 | 1.41 | 1.6 | 2.15 | 1.47 | 9.02 | 1.35 | 1.26 | 2.34 | 1.45 | 1.21 | 1.83 | 1.31 | 1.94 |
| LFDPDYMKVIL [CYP4A22_Y104_YF] | 0.775 | 0.392 | 0.564 | 1.42 | 0.759 | 1.23 | 1.44 | 1.2 | 1.43 | 0.675 | 4.91 | 0.958 | 0.502 | 0.675 | 1.5 | 1.76 |
| LFMGDYVDRGF [PPP2CA_Y86_YF] | 1.04 | 0.54 | 0.577 | 0.961 | 0.673 | 0.696 | 0.943 | 0.546 | 1.19 | 0.814 | 0.963 | 0.616 | 0.396 | 0.61 | 0.822 | 0.95 |
| LGQRIYQFIRS [DYRK1B_Y271_Q275R_YF] | 1.38 | 2.21 | 1.07 | 9.19 | 6.17 | 0.887 | 1.21 | 5.51 | 2.54 | 1.86 | 1.19 | 0.98 | 6.97 | 2.83 | 1.39 | 1.3 |
| LITTLYIGFLD [KCNQ1_Y267_G272D] | 1.09 | 0.744 | 0.906 | 1.25 | 1.71 | 3.07 | 1.35 | 1.78 | 1.16 | 2.56 | 3.12 | 2.36 | 0.929 | 4.15 | 0.777 | 2.56 |
| LITTLYISFLG [KCNQ1_Y267_G269S] | 0.872 | 0.838 | 0.621 | 0.852 | 1.15 | 2.27 | 1.06 | 0.757 | 0.784 | 0.913 | 1.98 | 1.64 | 0.902 | 1.56 | 0.71 | 1.47 |
| LITTPYIGFLG [KCNQ1_Y267_L266P] | 0.781 | 0.492 | 2.18 | 0.449 | 0.473 | 0.983 | 0.641 | 0.667 | 0.5 | 0.782 | 1.35 | 0.528 | 0.554 | 1.35 | 0.616 | 0.834 |
| LKFAIYFEVRE [LAMA2_Y1258_A1261V_YF] | 0.877 | 0.653 | 1.11 | 0.652 | 0.569 | 2.52 | 1.08 | 0.932 | 0.483 | 0.414 | 1.72 | 1.74 | 0.808 | 0.831 | 0.556 | 1.65 |
| LKGQVYILVRE [ASS1_Y359_G362V] | 0.878 | 0.525 | 0.896 | 0.682 | 0.454 | 1.14 | 0.982 | 0.328 | 0.652 | 0.343 | 1.36 | 0.921 | 0.375 | 0.334 | 0.481 | 1.43 |

Second part, led by results:

| SH2 binding enrichment (Grb2 SH2) | SH2 binding enrichment (c-Src SH2) | SH2 binding enrichment (SHP2-C SH2) | Sequence | phosphorylation enrichment (EPHB1) | phosphorylation enrichment (Hck) | phosphorylation enrichment (Jak2) | phosphorylation enrichment (FGFR3) | phosphorylation enrichment (Fer (mouse)) | phosphorylation enrichment (EPHB2) | phosphorylation enrichment (Fyn) | phosphorylation enrichment (Fes) | phosphorylation enrichment (c-Abl (mouse)) | phosphorylation enrichment (MERTK) | phosphorylation enrichment (c-Src) | phosphorylation enrichment (FGFR1) | phosphorylation enrichment (AncSZ) |
| --- | --- | --- | --- | --- | --- | --- | --- | --- | --- | --- | --- | --- | --- | --- | --- | --- |
| 1 | 0.538 | 1.11 | LEIETDRRLLD [KRT12_Y429_Y429D] | 1.13 | 1.08 | 2.8 | 1.4 | 1.06 | 1.03 | 1.29 | 3.18 | 2.64 | 0.93 | 1.41 | 1.35 | 2.31 |
| 0.754 | 0.471 | 0.725 | LEIETYRRLRD [KRT12_Y429_L433R] | 0.533 | 0.674 | 1.23 | 0.809 | 0.351 | 0.559 | 0.658 | 1.25 | 0.659 | 0.834 | 0.672 | 0.645 | 0.859 |
| 0.904 | 0.478 | 1.02 | LGKLTYPVGFW [NTHL1_Y177_I176T] | 1.12 | 1.23 | 2.04 | 1.48 | 1.32 | 1.65 | 1.14 | 2.06 | 1.32 | 0.889 | 1.35 | 1.31 | 2.42 |
| 0.995 | 0.637 | 0.557 | LHSDHYSPSGR [TMPRSS12_Y23_Y19H] | 0.431 | 0.851 | 0.414 | 0.871 | 0.746 | 0.672 | 0.778 | 0.585 | 0.569 | 0.617 | 0.503 | 0.485 | 1.79 |
| 0.844 | 0.426 | 0.714 | LIDSSYLTRTA [GREB1L_Y1063] | 0.43 | 0.425 | 0.651 | 0.44 | 0.905 | 0.746 | 0.571 | 0.668 | 0.634 | 0.527 | 0.489 | 0.507 | 0.748 |
| 0.674 | 0.822 | 0.5 | LIGRRYDDPEV [HSPA9_Y128] | 1.11 | 0.707 | 1.35 | 0.9 | 0.809 | 1.63 | 0.836 | 2.17 | 1.25 | 0.889 | 1.27 | 0.643 | 2.69 |
| 1.52 | 0.763 | 1.17 | LIHLHYIRRDY [BBS4_Y43_K46R] | 0.334 | 0.47 | 0.562 | 0.759 | 0.41 | 0.526 | 0.389 | 0.773 | 0.524 | 0.524 | 0.388 | 0.417 | 0.952 |
